The values that follow come from article PMC7356358, “Comparative Characterization of Plasmodium falciparum Hsp70-1 Relative to E. coli DnaK Reveals the Functional Specificity of the Parasite Chaperone” (Biomolecules, 2020).

Sequences and labels used below:
B1: Plasmodium falciparum Hsp70-1 (natural protein)
chain: not shown
notes: Plasmodium falciparum Hsp70-1, cytosolic Hsp70; PlasmoDB PF3D7_0818900; expressed from pQE30/PfHsp70-1; also called PfHsp70-1; PfHsp70

Series [1] deals with the molecule itself. The experiment in a line: SPR; MP-SPR (BioNavis); Hsp70 immobilised on a CMD3D 500L chip, the same Hsp70 as analyte at 0-2000 nM; no nucleotide; self-association, step not told; global fit.
Series [2] concerns the molecule itself. Kind of series: SPR; MP-SPR (BioNavis); Hsp70 immobilised on a CMD3D 500L chip, the same Hsp70 as analyte at 0-2000 nM; with 5 mM ADP; self-association, step not told; global fit.
Series [3] concerns the molecule itself. Kind of series: SPR; MP-SPR (BioNavis); Hsp70 immobilised on a CMD3D 500L chip, the same Hsp70 as analyte at 0-2000 nM; with 5 mM ATP; self-association, step not told; global fit. A general note: Surface plasmon resonance follows binding to a sensor surface in real time, without labels.
The target of series [4] is B1. Kind of series: SPR. The note with it: both partners purified.
Series [5] deals with T1, Escherichia coli DnaK (Escherichia coli, UniProt P0A6Y8 1-638).
T1 construct: E. coli Hsp70 (DnaK); expressed from pQE30/DnaK; also called E. coli Hsp70
The experiment in a line: SPR; MP-SPR; Hsp70 immobilised, peptide as analyte at 0-2000 nM, 100 µL/min; with 5 mM ADP. Conditions: both partners purified.

The target in series [6] is T1, Escherichia coli DnaK. The experiment in a line: SPR; MP-SPR; Hsp70 immobilised, peptide as analyte at 0-2000 nM, 100 µL/min; with 5 mM ATP (hydrolysable). The note with it: both partners purified.
For series [7], the target named is T1, Escherichia coli DnaK. Kind of series: SPR. Conditions: both partners purified.
In series [8] the target is B1. Kind of series: SPR; MP-SPR (BioNavis); Hsp70 immobilised (1.0 μg/mL), PfHsp40 as analyte at 0-2000 nM; no nucleotide; global fit. The note with it: both partners purified.
The target of series [9] is B1. The experiment in a line: SPR; MP-SPR (BioNavis); Hsp70 immobilised (1.0 μg/mL), PfHsp40 as analyte at 0-2000 nM; with 5 mM ADP; global fit. Conditions: both partners purified.
In series [10] the target is B1. Kind of series: SPR; MP-SPR (BioNavis); Hsp70 immobilised (1.0 μg/mL), PfHsp40 as analyte at 0-2000 nM; with 5 mM ATP; global fit. The note with it: both partners purified.

One may read the Kd as a measure of binding affinity in units of concentration. High values mean weaker binding, low ones tighter binding. A word on the kon: it is the rate constant with which the complex forms.

Where “and” joins values, the source holds several entries; their conditions need not be identical. Equal entries are not always repeated.

On to B1, for which the figures for the Kd in series [1], in [2] and in series [3] were 2390 nM, 1710 nM and 528 nM, respectively. Besides, the on-rate constant (kon) in [1] turned out to be 8510 M⁻¹ s⁻¹; in series [2] it was 100 M⁻¹ s⁻¹; in series [3], 21400 M⁻¹ s⁻¹.

B2: peptide NRNNTG (peptide)
peptide: NRNNTG
notes: NRLLTG with the middle residues substituted by asparagine; source: synthetic peptide
As for B2, the binding result (in series [4]; with Escherichia coli DnaK [5]) was “binds” each time.
Consider GFRNNNMYRF (source: synthetic peptide) [peptide GFRNNNMYRF], for which the binding result (in series [4]; with Escherichia coli DnaK [6]) was “binds” throughout.

B3: peptide GFRVVLMYRF (peptide)
peptide: GFRVVLMYRF
notes: canonical model Hsp70 peptide substrate; source: synthetic peptide
Consider B3, for which the binding result (in series [4]; with Escherichia coli DnaK [6]) was “binds” each time.

B4: peptide ALLLMYRR (peptide)
peptide: ALLLMYRR
notes: as for B3
For the molecule B4, the binding result (in series [4]; with Escherichia coli DnaK [5]) was “binds” throughout.

B5: peptide NRLLTG (peptide)
peptide: NRLLTG
notes: as for B3
Regarding B5, the binding result (in [4]; with Escherichia coli DnaK [5]) was “binds” throughout.

B6: Plasmodium falciparum Hsp40 (natural protein, UniProt Q8IL88 1-424, looked up)
chain: MFFSSGFPFDSMGGQQARRKREVNNNKFYEVLNLKKNCTTDEVKKAYRKLAIIHHPDKGGDPEKFKEISRAYEVLSDEEKRKLYDEYGEEGLENGEQPADATDLFDFILNAGKGKKKRGEDIVSEVKVTLEQLYNGATKKLAISKDIICTNCEGHGGPKDAKVDCKQCNGRGTKTYMRYHSSVLHQTEVTCNTCRGKGKIFNEKDKCANCKGMCVLKTRKIIEVYIPKGAPNKHKIVFNGEADEKPNVITGNLVVILNEKQHPVFRREGIDLFMNYKISLYESLTGFVAEVTHLDERKILVNCTNSGFIRHGDIREVLDEGMPTYKDPFKKGNLYITFEVEYPMDLIITNENKEVLKILKKQNEVEKKYDLENSELEVVSCSPVDKEYIKVRVTKQQQQQQQEAYDDEDHQPEMEGGRVACAQQ
notes: P. falciparum type I Hsp40, cytosolic co-chaperone of PfHsp70-1; PlasmoDB PF3D7_1437900; codon harmonized gene cloned into pQE30 (BamHI, HindIII); also called PfHsp40
On to B6, for which the kon was 122 M⁻¹ s⁻¹ and 116 M⁻¹ s⁻¹ and 112 M⁻¹ s⁻¹ in the series with Escherichia coli DnaK [7]; 1330 M⁻¹ s⁻¹ in series [8]; 1530 M⁻¹ s⁻¹ in series [9]; 181 M⁻¹ s⁻¹ in [10]. For the same molecule, the Kd in series [8] was found to be 18.8 µM; in [9], 9.98 µM; in [10], 208 nM.
With ANNNMYRR (source: synthetic peptide) [peptide ANNNMYRR], the binding result (in [4]; with Escherichia coli DnaK [6]) was “binds” throughout.
